Molecular target: E. coli 30S initiation complex (30S IC) lacking IF2 and IF3 (E. coli) (UniProt P69222)
Experiment: FRET or BRET

Sequence of UniProt P69222 (P69222 whole entry, looked up, one chain of several): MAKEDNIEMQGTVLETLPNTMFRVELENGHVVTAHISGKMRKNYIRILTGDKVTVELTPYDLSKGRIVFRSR

fold change of Kd, IF2 bound to ppGpp relative to IF2 bound to GTP: 10 fold
Substance: Cy5-labeled Initiation Factor 2 (IF2), E. coli (from UniProt P0A705 1-890) (natural protein)

— article doi:10.1101/807917
